Experimental findings from paper PMC3081424 (Archives of biochemistry and biophysics, 2011) are described below.

The target of one test is Gαq. As to the kind of experiment: eCFP/eYFP FRET in living cells, basal. The following applies: sites S887.
The target of test [1] is T1, eYFP-PLCβ1 (wild type phospholipase Cβ1) (UniProt P10687 1-1216).
T1 sequence (looked up): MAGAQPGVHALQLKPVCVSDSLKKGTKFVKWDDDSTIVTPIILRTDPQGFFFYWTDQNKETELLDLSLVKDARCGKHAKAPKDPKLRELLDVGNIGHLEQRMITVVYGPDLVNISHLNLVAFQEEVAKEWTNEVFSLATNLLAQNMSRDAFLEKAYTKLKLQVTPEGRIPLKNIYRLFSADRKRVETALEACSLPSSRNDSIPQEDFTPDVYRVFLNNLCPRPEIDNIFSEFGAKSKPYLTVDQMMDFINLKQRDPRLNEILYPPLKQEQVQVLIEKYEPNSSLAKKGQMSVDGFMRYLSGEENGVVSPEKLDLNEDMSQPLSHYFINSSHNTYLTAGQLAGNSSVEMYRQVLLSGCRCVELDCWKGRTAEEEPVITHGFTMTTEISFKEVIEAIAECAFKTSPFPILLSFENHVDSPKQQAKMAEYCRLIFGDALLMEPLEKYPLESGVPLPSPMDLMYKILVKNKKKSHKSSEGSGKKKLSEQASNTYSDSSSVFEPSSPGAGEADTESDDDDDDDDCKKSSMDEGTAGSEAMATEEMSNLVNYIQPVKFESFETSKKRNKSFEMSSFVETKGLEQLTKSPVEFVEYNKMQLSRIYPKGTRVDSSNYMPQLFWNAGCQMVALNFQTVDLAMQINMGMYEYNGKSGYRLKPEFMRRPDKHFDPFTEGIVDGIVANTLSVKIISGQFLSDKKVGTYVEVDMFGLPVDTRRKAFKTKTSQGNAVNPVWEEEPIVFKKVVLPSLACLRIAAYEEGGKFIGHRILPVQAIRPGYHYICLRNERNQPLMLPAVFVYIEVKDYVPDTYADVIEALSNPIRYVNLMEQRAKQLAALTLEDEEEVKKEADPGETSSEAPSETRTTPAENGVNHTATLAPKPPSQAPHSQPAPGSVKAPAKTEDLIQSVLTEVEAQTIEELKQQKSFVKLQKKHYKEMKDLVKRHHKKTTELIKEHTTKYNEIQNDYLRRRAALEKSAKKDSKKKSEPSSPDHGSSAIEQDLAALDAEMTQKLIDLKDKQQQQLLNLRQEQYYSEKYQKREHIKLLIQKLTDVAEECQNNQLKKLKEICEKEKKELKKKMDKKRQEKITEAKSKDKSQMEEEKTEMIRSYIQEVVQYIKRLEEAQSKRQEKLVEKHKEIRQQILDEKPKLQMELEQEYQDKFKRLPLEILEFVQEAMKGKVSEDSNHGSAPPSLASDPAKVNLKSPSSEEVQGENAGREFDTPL
As to the kind of experiment: FRET or BRET. On the technique in general: In BRET a luciferase serves as donor, and the signal depends on an acceptor being close.

The next test has as its target T2, eYFP-PLCβ1 S887A (UniProt P10687 1-1216, S887A).
T2 sequence (looked up): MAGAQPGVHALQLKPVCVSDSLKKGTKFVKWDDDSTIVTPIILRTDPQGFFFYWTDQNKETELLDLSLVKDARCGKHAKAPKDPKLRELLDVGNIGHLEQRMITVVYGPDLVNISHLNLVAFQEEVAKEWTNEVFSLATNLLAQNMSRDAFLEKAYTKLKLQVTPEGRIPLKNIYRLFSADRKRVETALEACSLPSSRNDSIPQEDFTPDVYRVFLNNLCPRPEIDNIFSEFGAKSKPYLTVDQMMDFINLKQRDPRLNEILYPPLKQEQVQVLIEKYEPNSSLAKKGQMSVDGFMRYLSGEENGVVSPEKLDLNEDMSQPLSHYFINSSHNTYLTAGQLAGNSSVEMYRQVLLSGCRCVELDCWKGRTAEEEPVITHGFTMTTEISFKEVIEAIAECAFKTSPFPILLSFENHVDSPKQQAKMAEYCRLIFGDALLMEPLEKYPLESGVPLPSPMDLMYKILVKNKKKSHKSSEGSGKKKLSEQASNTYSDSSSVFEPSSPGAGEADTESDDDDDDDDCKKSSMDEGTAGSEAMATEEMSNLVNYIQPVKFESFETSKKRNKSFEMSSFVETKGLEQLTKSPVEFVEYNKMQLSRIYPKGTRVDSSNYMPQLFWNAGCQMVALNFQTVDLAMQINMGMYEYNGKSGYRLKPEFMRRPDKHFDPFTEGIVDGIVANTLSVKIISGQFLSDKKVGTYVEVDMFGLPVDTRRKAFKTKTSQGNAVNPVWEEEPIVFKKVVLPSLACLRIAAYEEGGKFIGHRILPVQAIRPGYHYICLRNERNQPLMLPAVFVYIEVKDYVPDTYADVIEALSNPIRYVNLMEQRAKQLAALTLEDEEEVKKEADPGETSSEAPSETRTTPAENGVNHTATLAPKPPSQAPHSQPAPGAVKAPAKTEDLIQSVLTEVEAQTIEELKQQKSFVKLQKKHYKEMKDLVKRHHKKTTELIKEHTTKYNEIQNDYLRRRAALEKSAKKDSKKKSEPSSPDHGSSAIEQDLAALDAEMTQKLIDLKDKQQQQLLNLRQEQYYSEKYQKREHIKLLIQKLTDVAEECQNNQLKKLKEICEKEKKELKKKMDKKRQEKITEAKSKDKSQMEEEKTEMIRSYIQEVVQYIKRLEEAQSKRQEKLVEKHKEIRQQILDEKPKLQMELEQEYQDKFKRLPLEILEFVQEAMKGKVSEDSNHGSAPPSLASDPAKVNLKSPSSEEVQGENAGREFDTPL
As to the kind of experiment: FRET or BRET.

The target in a further test is T3, eYFP-PLCβ1 S887D (UniProt P10687 1-1216, S887D).
T3 sequence (looked up): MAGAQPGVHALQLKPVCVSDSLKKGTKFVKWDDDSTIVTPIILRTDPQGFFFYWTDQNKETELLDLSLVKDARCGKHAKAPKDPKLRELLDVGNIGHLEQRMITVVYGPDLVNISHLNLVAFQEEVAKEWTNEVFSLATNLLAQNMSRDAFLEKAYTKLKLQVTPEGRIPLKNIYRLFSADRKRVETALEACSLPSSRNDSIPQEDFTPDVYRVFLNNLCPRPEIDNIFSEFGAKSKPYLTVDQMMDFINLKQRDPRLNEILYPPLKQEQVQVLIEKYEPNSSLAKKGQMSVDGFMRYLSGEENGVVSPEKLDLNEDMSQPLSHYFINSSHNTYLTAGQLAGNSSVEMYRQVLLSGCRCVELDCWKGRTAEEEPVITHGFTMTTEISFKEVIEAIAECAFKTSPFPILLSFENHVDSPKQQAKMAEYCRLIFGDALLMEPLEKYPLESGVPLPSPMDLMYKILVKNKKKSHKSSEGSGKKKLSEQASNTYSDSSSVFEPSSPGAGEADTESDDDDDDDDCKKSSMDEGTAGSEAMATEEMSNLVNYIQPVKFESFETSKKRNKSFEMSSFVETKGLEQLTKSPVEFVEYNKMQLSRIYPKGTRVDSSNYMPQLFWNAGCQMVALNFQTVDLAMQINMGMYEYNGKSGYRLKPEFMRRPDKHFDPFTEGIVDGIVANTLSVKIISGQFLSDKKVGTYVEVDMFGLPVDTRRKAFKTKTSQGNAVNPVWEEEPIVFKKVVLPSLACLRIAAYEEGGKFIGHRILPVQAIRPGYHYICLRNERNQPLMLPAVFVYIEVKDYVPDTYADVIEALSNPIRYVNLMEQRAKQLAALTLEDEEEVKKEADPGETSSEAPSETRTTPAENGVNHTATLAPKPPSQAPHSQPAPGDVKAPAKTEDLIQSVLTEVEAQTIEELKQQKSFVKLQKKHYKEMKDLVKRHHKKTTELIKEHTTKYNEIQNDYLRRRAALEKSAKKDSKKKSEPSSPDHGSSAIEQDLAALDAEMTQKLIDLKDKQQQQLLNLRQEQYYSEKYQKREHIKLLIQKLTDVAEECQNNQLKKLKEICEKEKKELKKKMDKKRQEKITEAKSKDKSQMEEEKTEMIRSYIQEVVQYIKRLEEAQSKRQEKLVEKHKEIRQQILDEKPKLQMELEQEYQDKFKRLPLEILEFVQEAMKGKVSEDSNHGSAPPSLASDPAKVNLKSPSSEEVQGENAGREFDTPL
As to the kind of experiment: FRET or BRET.

Turning to PLCβ1 S887A, the “other: FRET efficiency” value with Gαq (reference: wild type) is listed as “same; reference 38±4”.

For PLCβ1 S887D, the results for the “other: FRET efficiency” value in the test with Gαq (reference: S887A) and in the test with Gαq (reference: wild type) were “same; reference 30±6” and “same; reference 38±4”, respectively.

B1: eCFP-Gαq (natural protein, UniProt P21279 1-359, looked up)
chain: MTLESIMACCLSEEAKEARRINDEIERQLRRDKRDARRELKLLLLGTGESGKSTFIKQMRIIHGSGYSDEDKRGFTKLVYQNIFTAMQAMIRAMDTLKIPYKYEHNKAHAQLVREVDVEKVSAFENPYVDAIKSLWNDPGIQECYDRRREYQLSDSTKYYLNDLDRVADPSYLPTQQDVLRVRVPTTGIIEYPFDLQSVIFRMVDVGGQRSERRKWIHCFENVTSIMFLVALSEYDQVLVESDNENRMEESKALFRTIITYPWFQNSSVILFLNKKDLLEEKIMYSHLVDYFPEYDGPQRDAQAAREFILKMFVDLNPDSDKIIYSHFTCATDTENIRFVFAAVKDTILQLNLKEYNLV
In the case of B1, the values for the FRET efficiency (in test [1]; in the test with eYFP-PLCβ1 S887A; with eYFP-PLCβ1 S887D) were 38 ± 4%, 30 ± 6% and 39 ± 3%, respectively.
